Assay results published in patent US20220403392 (published 2022).
Positions count from the first letter of the chain named.

B1: NU 3' + 5' fiber (mixed)
DNA 1: TCCCTTTAGGGAATGACCCTGAAGTTCATCTGCACCACCGAGGGAAATCCCTTTTTCGCCTAGGTTGGGTAGGGTGGTGGCG
DNA 2: CGCCTAGGTTGGGTAGGGTGGTGGCGTTTTTCCCTAAAGGGATGACCCTGAAGTTCATCTGCACCACCGAAGGGATTTCCCT
DNA 3: CGGTGGTGCAGATGAACTTCAGGGTCA
B2: RA 5'3' + 5'3' fiber (mixed)
DNA 1: GGTTGGTGTGGTTGGTGGTTGGTGTGGTTGGTTTTCCCTTTAGGGAATGACCCTGAAGTTCATCTGCACCACCGAGGGAAATCCCTTTTTGGTTGGTGTGGTTGGTGGTTGGTGTGGTTGG
DNA 2: B2 DNA 1 with C36T, T39C, T41A, G43A, A46G, G76A, A79G, A81T, C83T, T86C
DNA 3: CGGTGGTGCAGATGAACTTCAGGGTCA
B3: RA 5' + 5' fiber (mixed)
DNA 1: GGTTGGTGTGGTTGGTGGTTGGTGTGGTTGGTTTTCCCTTTAGGGAATGACCCTGAAGTTCATCTGCACCACCGAGGGAAATCCCTT
DNA 2: B3 DNA 1 with C36T, T39C, T41A, G43A, A46G, G76A, A79G, A81T, C83T, T86C
DNA 3: CGGTGGTGCAGATGAACTTCAGGGTCA
B4: RA 5' + 3' fiber (mixed)
DNA 1: B3 DNA 1
DNA 2: TTCCCTAAAGGGATGACCCTGAAGTTCATCTGCACCACCGAAGGGATTTCCCTTTTGGTTGGTGTGGTTGGTGGTTGGTGTGGTTGG
DNA 3: CGGTGGTGCAGATGAACTTCAGGGTCA
B5: RA 3' + 3' fiber (mixed)
DNA 1: B4 DNA 2 with T2C, C5T, A7T, A9G, G12A, A42G, G45A, T47A, T49C, C52T
DNA 2: B4 DNA 2
DNA 3: CGGTGGTGCAGATGAACTTCAGGGTCA

Target: thrombin (Homo sapiens, UniProt P00734;P00734 P00734:328-363,P00734:364-622)
Assay: inhibition; TT, plasma alone 16.3 s; about 0.5 uM in human plasma, 37 C

| Binder | activity |
| --- | --- |
| B1 | > 60 s |
| B2 | > 60 s |
| B3 | > 60 s |
| B4 | > 60 s |
| B5 | > 60 s |
